Experimental data from patent publication US20130330359A1 (AbbVie / Abbott, published 2013).

T1: carrier free RGMc (R&D Systems) (human, UniProt Q6ZVN8 36-400)
T1 construct: also called RGMc-CF
T1 sequence (looked up): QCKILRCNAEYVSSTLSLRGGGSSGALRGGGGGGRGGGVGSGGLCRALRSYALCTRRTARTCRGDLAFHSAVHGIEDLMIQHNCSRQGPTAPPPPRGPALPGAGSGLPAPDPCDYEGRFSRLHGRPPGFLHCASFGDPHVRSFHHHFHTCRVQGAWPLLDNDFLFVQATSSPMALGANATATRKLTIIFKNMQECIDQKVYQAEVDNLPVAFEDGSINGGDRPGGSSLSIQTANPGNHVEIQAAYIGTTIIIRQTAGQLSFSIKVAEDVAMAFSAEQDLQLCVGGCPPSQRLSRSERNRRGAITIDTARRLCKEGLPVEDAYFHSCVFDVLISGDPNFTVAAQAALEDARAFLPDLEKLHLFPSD

T2: carrier free RGMb (R&D Systems) (UniProt Q6NW40 46-413, limits assumed)
T2 construct: also called RGMb-CF
T2 sequence (looked up): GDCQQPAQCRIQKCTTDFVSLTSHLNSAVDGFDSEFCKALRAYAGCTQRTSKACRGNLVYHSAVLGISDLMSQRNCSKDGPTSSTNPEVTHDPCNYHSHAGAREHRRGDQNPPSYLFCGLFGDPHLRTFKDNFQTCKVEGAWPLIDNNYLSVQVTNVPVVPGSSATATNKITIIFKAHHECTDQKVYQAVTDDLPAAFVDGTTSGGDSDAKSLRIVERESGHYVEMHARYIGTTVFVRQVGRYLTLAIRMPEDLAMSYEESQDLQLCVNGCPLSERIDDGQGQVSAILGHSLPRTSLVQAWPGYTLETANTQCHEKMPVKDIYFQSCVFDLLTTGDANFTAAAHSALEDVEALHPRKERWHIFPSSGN

T3: carrier free RGMa (R&D Systems) (UniProt Q96B86 48-422, limits assumed)
T3 construct: also called RGMa-CF
T3 sequence (looked up): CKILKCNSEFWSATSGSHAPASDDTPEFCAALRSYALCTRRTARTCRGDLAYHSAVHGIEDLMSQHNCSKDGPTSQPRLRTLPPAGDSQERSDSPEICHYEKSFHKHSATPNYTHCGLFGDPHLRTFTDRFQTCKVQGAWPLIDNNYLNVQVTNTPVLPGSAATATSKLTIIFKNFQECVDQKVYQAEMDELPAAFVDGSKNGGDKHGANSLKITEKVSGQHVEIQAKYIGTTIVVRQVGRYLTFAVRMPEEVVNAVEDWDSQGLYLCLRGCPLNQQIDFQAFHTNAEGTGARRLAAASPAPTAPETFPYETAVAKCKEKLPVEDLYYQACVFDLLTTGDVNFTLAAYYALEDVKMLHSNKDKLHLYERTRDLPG

T4: RGMc antigen: amino acids 33-391 of RGMc followed by human Fc (human, UniProt Q6ZVN8 33-391)
T4 construct: also called RGMc-huFc; RGMc-Fc; not shown: human Fc
T4 sequence: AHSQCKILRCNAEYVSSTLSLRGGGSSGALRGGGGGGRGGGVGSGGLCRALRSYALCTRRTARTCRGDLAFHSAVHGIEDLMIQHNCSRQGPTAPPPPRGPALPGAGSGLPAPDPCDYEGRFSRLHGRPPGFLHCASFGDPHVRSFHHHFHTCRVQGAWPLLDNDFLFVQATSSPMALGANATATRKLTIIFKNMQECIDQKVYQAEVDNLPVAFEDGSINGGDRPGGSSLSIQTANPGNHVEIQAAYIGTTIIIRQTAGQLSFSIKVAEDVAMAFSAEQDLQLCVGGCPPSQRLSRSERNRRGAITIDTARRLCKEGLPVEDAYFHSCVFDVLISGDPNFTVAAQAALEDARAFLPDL


Tests used:
[1] = target: T5, mouse:human chimeric antibody (used as human IgG / human IgG Fc antigen); test: direct EIA: mouse:human chimeric antibody coated at 1.0 ug/mL; supernatant diluted 1:125; goat anti-mouse IgG Fc-HRPO
T5 construct: also called Hu IgG; human IgG Fc portion
Procedure: (§1) A mouse:human chimeric antibody or RGMc-huFc was coated on the solid phase of micro-titer EIA plates at 1.0 ug/mL. After the antigen had been coated on the solid phase, it was removed and any open binding sites on the plates were blocked using BSA block solution. The wells were washed with distilled water. Cell supernatants and control reagents were added to the blocked plates and allowed to incubate at room temperature for at least one hour. The negative control was a purified mAb from a different antigen system. The positive control for human IgG was a purified anti-hu IgG mAb developed against another antigen containing human IgG Fc carrier protein. The RGMc positive control is Novus mab 1C12. Following this incubation, the solutions were removed from the plates and they were washed with distilled water. Goat anti-mouse IgG Fc-HRPO (Jackson Immunoresearch) diluted to approximately 200 ng/mL in block solution was added to the plates and allowed to incubate for 30 minutes at room temperature. The plates were washed with distilled water and o-phenylenediamine substrate (Abbott Laboratories) was used as the chromogen to generate signal. Plates were read at 492 nm and the results were analyzed.

[2] = target: T1, carrier free RGMc (R&D Systems); test: direct EIA: carrier-free RGMc coated at 0.5 ug/mL; supernatant diluted 1:125; goat anti-mouse IgG-HRPO
Procedure: (§2) Clones were then tested for cross-reactivity with RGMa and RGMb by EIA. Carrier free RGMa, RGMb, or RGMc (R&D Systems) was coated on the solid phase of micro-titer EIA plates at 0.5 ug/mL. After the antigen had been coated on the solid phase, it was removed and any open binding sites on the plates were blocked using fish gel block solution. The wells were washed with distilled water following this incubation. Cell supernatants and control reagents were added to the blocked plates and allowed to incubate at room temperature for at least one hour. The negative control was a purified mouse mAb from a different antigen system. The positive control for RGMa, RGMb, & RGMc was a goat anti-RGMa, RGMb, or RGMc polyclonal antibody (R&D Systems). Following this incubation, the solutions were removed from the plates and they were washed with distilled water. Donkey anti-Goat IgG-HRPO diluted to approximately 200 ng/mL in block solution was added to the plates with the positive control test samples and goat anti-mouse IgG-HRPO (Jackson Immunoresearch) diluted to approximately 200 ng/mL in block solution was added to the plates with the fusion #1 test samples. All plates were allowed to incubate for 30 minutes at room temperature. The plates were washed with distilled water and o-phenylenediamine substrate was used as the chromogen to generate signal. Plates were read at 492 nm and the results were analyzed.

[3] = target: T2, carrier free RGMb (R&D Systems); test: EIA on coated carrier-free RGMb (summary of specificity)
Procedure: as §2

[4] = target: T2, carrier free RGMb (R&D Systems); test: direct EIA: carrier-free RGMb coated at 0.5 ug/mL; supernatant diluted 1:125; goat anti-mouse IgG-HRPO
Procedure: as §2

[5] = target: T3, carrier free RGMa (R&D Systems); test: EIA on coated carrier-free RGMa (summary of specificity)
Procedure: as §2

[6] = target: T4, RGMc antigen: amino acids 33-391 of …; test: direct EIA: RGMc-huFc coated at 1.0 ug/mL; supernatant diluted 1:125; goat anti-mouse IgG Fc-HRPO
Procedure: as §1

| absorbance at 492 nm [1] | absorbance at 492 nm [2] | binding result [3] | absorbance at 492 nm [4] | binding result [5] | absorbance at 492 nm [6] | Binder |
| --- | --- | --- | --- | --- | --- | --- |
| 0.06 | 1.58 | no binding | 0.07 | no binding | 1.55 | 1A-2989-187 (antibody, V domains shown) VH: EVQLQQSGAELVRSGASVKLSCTASGFNIRDFYIHWVKQRPEQGLEWLGWIDPENGDIEYAPKFQGKATMTADTSSNTAYLQLNSLTSEDTALYYCNGNGYYLDYWGQGTTLTVSS VL: not shown |
| 0.06 | 1.34 | no binding | 0.06 | no binding | 1.66 | 1A-2860-475 (antibody, V domains shown, The parent line 1A-2860 and subclone 1A-2860-177 used in the assays are treated here as the same antibody; also called 1A-2860-177) VH: DVLLQESGPDLVKPSQSLSLTCTVTGYSISSGYSWHWIRQFPGNKLEWMAYIHYTGNTNYNPSLKSRISITRDTSKNQFFLHLNSVTTEDTATYYCALFGLSGFWGQGTLVTVSA VL: DVLMTQTPLSLPVSLGDQASISCRSSQTIVHSNGNTYLDWYLQKPGQSPKVLIYKVSNRFSGVPDRFSGSGSGTDFTLKISRVEAEDLGVYFCLQGSHVPWTFGGGTQLEIKR |
| 0.07 | 2.53 | no binding | 0.09 | no binding | 2.8 | 1B-3363-715 (antibody, V domains shown, The parent line 1B-3363 and subclone 1B-3363-502 used in the assays are treated here as the same antibody; also called 1B-3363-502) VH: DVQLQESGPDLVKPSQSLSLTCTVTGYSITSGYSWHWIRQFPGNKLEWMGYIHYSGNTDYNPSLKSRISFTRDTSKNQFFLQLNSVTTEDTATYFCAIGTGPWGQGTTLTVSS VL: DVLMTQTPLSLPVSLGDQASISCRSSQNIVHSNGHTYLEWYLQKPGQSPKLLIYKVSNRFSGVPDRFSGSGSGTDFTLKISRVEAEDLGVYYCFQGSHVPWTFGGGTKLEIKR |
